Experimental data from article doi:10.1101/2021.03.29.437455.

Columns and labels:
[1] = target: polo-like kinase 1 (PLK1) PBD, 345-603 (UniProt P53350); test: isothermal titration calorimetry; settings: reference: unphosphorylated peptide PNTSSPS; sites S379
[2] = target: GST-EBNA2 446-474 S457A/T465V (Epstein-Barr virus) (UniProt P12978); test: pull-down; settings: remark: other sources report otherwise
[3] = target: PLK1 polo-box domain (PBD), PLK1 residue 345-603 (UniProt P53350); test: ITC

Substance: EBNA2 (EBV nuclear antigen 2) (from UniProt P12978) phosphopeptide PNTSpSPS
- KD [1]: 8.19 µM

Substance: histone acetylase and co-activator p300, Q09472 1-2414
- fold change of p300 binding against wt [2]: 8 to 9 fold

Substance: EBNA2 phospho-heptapeptide PNTSpSPS
- Kd [3]: 8.19 µM
- stoichiometry N [3]: 1
